{"source": "patent US20150203575A1", "about": "(Genentech, published 2015)", "binders": {"B1": {"name": "hPILRα-AP (other)", "chain": "QPSGSTGSGPSYLYGVTQPKHLSASMGGSVEIPFSFYYPWELATAPDVRISWRRGHFHRQSFYSTRPPSIHKDYVNRLFLNWTEGQKSGFLRISNLQKQDQSVYFCRVELDTRSSGRQQWQSIEGTKLSITQAVTTTTQRPSSMTTTWRLSSTTTTTGLRVTQGKRRSDSWHISLET", "notes": "Used as culture supernatant; also called human PILRα-AP; Alkaline phosphatase (AP)-tagged PILRα construct; not shown: C-terminal alkaline phosphatase (AP) tag"}, "B2": {"name": "mPILRα-Fc (Fc fusion)", "chain": "not shown", "notes": "also called mouse PILRα-Fc; WT mPILRα-Fc; not shown: Fc of mouse IgG2a (PILRα-mIgG2a, called PILRα-Fc)"}, "B3": {"name": "mPILRαR133A-Fc (Fc fusion)", "chain": "not shown", "notes": "Arg mutant of mPILRα-Fc; also called mPILRα133A-Fc; variant mPILRα (R133A); not shown: Fc of mouse IgG2a (PILRα-mIgG2a, called PILRα-Fc)"}}, "key": {"[1]": {"target": "T1, IL-2Ra expressed on cells (human, UniProt P01589 22-272)", "T1 construct": "Clone of the Origene human cDNA library; also called Interleukin 2 receptor alpha", "T1 sequence": "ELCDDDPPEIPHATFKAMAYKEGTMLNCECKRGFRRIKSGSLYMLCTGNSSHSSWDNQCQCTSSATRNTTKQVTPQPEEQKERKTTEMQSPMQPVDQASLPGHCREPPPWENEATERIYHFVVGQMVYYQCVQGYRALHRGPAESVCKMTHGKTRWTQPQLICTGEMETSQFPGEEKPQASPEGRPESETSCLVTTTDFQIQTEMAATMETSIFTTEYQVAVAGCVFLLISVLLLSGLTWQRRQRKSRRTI", "test": "cDNA expression library screen with PILRα-AP supernatant on COS7 transfectants; positive clones further analysed by FACS", "description": "(§1) COS7 cells were plated in a 24-well format and transfected with 10 ul of Origene library DNA (Origene, human DNA library containing 20 k genes) per well with Fugene 6 Reagent. Two days later, cells were incubated with human or mouse PILRα-Ap supernatants for 45 min at room temperature (RT). Then cells were fixed with 4% PFA for 15 min at RT. After removing fixation buffer, cells were blocked with 100 mM Glycine in HBS (20 mM Hepes, PH7.2, 150 mM NaCl) for 15 min at RT. Cells were then rinsed and incubated in HBS for 90 min at 65° C. HBS was removed and Western Blue Substrate (Promega) was added and color was developed for 30 min to 1 hr."}, "[2]": {"target": "T2, BR3 expressed on cells (human, UniProt Q96RJ3 1-184)", "T2 construct": "Clone of the Origene human cDNA library", "T2 sequence": "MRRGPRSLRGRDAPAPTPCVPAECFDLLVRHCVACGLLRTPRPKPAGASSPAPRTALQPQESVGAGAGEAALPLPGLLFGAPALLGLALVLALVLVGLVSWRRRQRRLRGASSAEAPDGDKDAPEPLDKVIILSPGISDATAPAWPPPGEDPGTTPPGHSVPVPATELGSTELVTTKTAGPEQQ", "test": "cDNA expression library screen with PILRα-AP supernatant on COS7 transfectants; positive clones further analysed by FACS", "description": "as §1"}, "[3]": {"target": "T3, FceRII expressed on cells (human, UniProt P06734 1-321)", "T3 construct": "Clone of the Origene human cDNA library; also called FcRII", "T3 sequence": "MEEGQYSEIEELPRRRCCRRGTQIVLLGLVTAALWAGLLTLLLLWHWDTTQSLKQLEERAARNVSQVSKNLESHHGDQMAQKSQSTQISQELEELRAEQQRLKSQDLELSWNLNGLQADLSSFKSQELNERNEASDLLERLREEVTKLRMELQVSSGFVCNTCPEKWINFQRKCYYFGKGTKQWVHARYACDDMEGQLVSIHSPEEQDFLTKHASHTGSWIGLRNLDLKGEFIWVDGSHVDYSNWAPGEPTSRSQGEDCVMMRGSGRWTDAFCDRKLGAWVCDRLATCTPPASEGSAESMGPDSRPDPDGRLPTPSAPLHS", "test": "cDNA expression library screen with PILRα-AP supernatant on COS7 transfectants; positive clones further analysed by FACS", "description": "as §1"}, "[4]": {"target": "T4, LRRTM4 expressed on cells (human, UniProt Q86VH4 31-590)", "T4 construct": "Clone of the Origene human cDNA library; also called Leucine rich repeat transmembrane neuronal 4", "T4 sequence (Q86VH4 31-590 limits assumed)": "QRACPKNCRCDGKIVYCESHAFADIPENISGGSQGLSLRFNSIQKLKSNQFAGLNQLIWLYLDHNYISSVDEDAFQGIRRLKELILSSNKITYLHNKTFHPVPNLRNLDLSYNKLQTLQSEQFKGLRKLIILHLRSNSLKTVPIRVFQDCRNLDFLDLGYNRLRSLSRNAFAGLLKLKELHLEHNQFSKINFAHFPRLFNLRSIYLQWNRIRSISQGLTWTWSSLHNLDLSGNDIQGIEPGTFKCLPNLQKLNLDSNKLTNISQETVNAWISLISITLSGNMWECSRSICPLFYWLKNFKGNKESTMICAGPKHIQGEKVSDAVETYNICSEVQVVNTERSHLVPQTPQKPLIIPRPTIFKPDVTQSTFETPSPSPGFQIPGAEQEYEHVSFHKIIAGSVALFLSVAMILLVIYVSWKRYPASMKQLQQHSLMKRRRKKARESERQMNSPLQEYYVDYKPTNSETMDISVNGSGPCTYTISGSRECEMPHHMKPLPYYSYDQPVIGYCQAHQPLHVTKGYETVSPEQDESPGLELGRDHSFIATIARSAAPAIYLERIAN", "test": "cDNA expression library screen with PILRα-AP supernatant on COS7 transfectants; positive clones further analysed by FACS", "description": "as §1"}, "[5]": {"target": "T1, IL-2Ra expressed on cells", "test": "flow cytometry, transfected 293T cells, 2 µg/ml"}, "[6]": {"target": "T2, BR3 expressed on cells", "test": "flow cytometry, transfected 293T cells, 2 µg/ml"}, "[7]": {"target": "T5, PSS8 expressed on cells (human, UniProt Q16651 30-343)", "T5 construct": "Clone of the Origene human cDNA library; also called Protease serine 8; prostasin", "T5 sequence (Q16651 30-343 limits assumed)": "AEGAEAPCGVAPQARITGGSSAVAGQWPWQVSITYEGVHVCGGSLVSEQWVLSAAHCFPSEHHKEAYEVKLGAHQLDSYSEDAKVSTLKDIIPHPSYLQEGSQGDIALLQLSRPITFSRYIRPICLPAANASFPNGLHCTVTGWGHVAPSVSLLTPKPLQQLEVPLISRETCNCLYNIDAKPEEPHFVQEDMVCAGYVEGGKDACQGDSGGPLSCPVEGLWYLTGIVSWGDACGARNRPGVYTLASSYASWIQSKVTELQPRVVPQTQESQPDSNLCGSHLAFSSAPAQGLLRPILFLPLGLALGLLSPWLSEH", "test": "flow cytometry, transfected 293T cells, 2 µg/ml"}, "[8]": {"target": "T6, mouse CD99 expressed on 293T cells (mouse, UniProt Q8VCN6 29-175, sialylated O-glycans at Thr-45 and Thr-50 (cited as relevant for PILRα recognition))", "T6 construct": "whole, on cells; also called mCD99; mCD99 transfectants", "T6 sequence (looked up)": "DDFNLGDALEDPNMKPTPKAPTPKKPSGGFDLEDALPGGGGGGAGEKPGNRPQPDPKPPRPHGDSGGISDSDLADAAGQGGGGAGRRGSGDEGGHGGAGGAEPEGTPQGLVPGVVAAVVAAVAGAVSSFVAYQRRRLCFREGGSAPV", "test": "flow cytometry, transfected 293T cells, 2 µg/ml; 293T-Neo: 0"}, "[9]": {"target": "T7, HSV1 glycoprotein B expressed on 293T cells (herpes simplex virus type 1, UniProt P10211 31-904)", "T7 construct": "whole, on cells; also called HSV-1 gB; HSV1 gB", "test": "flow cytometry, transfected 293T cells, ligand-expressing cells gated"}, "[10]": {"target": "T8, human COLEC12 expressed on cells (human, UniProt Q5KU26 1-742)", "T8 construct": "also called hCOLEC12; C-terminal his tagged hCOLEC12", "T8 sequence (Q5KU26 whole entry S522P/G606S)": "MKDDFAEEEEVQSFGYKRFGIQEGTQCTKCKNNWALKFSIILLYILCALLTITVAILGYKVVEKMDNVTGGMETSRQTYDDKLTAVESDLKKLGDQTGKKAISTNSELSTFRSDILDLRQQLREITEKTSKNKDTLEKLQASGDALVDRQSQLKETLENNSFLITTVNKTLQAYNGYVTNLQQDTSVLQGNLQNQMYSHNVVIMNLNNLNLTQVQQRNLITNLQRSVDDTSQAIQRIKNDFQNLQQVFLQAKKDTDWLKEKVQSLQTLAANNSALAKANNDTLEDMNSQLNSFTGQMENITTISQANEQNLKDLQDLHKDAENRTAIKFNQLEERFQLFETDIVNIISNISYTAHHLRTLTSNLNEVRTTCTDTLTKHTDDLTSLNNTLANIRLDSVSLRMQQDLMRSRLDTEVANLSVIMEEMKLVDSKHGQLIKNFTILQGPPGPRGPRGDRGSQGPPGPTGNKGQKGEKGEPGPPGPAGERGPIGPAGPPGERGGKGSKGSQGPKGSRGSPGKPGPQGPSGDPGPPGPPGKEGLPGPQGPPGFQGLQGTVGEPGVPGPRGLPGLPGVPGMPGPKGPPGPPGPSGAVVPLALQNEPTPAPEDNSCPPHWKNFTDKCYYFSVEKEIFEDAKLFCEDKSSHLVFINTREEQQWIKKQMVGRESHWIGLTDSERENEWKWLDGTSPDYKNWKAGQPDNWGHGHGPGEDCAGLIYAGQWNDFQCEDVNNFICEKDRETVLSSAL", "test": "flow cytometry, transfected 293T cells, ligand-expressing cells gated"}, "[11]": {"target": "T6, mouse CD99 expressed on 293T cells", "test": "flow cytometry, transfected 293T cells, ligand-expressing cells gated"}, "[12]": {"target": "T9, human NPDC1 expressed on cells (human, UniProt Q9NQX5 35-325)", "T9 construct": "also called hNPDC1; hNPCD1", "T9 sequence": "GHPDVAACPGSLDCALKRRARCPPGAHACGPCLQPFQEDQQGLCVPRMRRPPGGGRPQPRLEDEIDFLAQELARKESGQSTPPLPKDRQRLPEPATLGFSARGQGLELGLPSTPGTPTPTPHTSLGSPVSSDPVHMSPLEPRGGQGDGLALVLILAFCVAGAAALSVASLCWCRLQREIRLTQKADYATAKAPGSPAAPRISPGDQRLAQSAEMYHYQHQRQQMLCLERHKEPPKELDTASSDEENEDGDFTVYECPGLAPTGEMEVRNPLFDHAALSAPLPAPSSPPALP", "test": "flow cytometry, transfected 293T cells, ligand-expressing cells gated"}, "[13]": {"target": "T4, LRRTM4 expressed on cells", "test": "flow cytometry, transfected 293T cells"}}, "data": [{"binder": "B1", "values": [{"measurement": "binding result", "setting": "[1]", "value": "binds"}, {"measurement": "binding result", "setting": "[2]", "value": "binds"}, {"measurement": "binding result", "setting": "[3]", "value": "binds"}, {"measurement": "binding result", "setting": "[4]", "value": "binds"}]}, {"binder": "B2", "values": [{"measurement": "% cells in lower right quadrant", "setting": "[5]", "value": 14.1, "unit": "%"}, {"measurement": "% cells in lower right quadrant", "setting": "[6]", "value": 34.1, "unit": "%"}, {"measurement": "% cells in lower right quadrant", "setting": "[7]", "value": 0.024, "unit": "%"}, {"measurement": "% cells in lower right quadrant", "setting": "[8]", "value": 34, "unit": "%"}]}, {"binder": "B3", "values": [{"measurement": "binding result", "setting": "[9]", "value": "no binding"}, {"measurement": "binding result", "setting": "[10]", "value": "no binding"}, {"measurement": "binding result", "setting": "[11]", "value": "no binding"}, {"measurement": "binding result", "setting": "[12]", "value": "no binding"}, {"measurement": "binding result", "setting": "[13]", "value": "no binding (tested: 50 µg/ml)"}]}]}
